Results published in the RNAGym collection of RNA variant scans (doi:10.7554/elife.80360).

B1: HDV Ribozyme (parent)
chain: GGCCGGCAUGGUCCCAGCCUCCUCGCUGGCGCCGGCUGGGCAACAUUCCGAGGGGACCGUCCCCUCGGUAAUGGCGAAUGGGACCCA

Variants of: B1
Assay: self-cleavage, relative activity (ratio to wild type); higher = more cleavage; co-transcriptional

| Variant | self-cleavage |
| --- | --- |
| GGCCGGCAUGGUCCCAGCCUCCUCGCUGGCGCCGGCUGGGCAACAUUCCGAGGGGACCGUCCCCUCUGUACUGGCGAAUGGGACCCA | 0.892 |
| GGCCGGCAUGGUCCCAGCCUCCUCGCUGGCGCCGGCUGGGCAACAUUCCGAGGGGACCGUCCCCUCUGUAGUGGCGAAUGGGACCCA | 1.12 |
| GGCCGGCAUGGUCCCAGCCUCCUCGCUGGCGCCGGCUGGGCAACAUUCCGAGGGGACCGUCCCCUCUGUAAUGGCGAAUCGGACCCA | 0.128 |
| GGCCGGCAUGGUCCCAGCCUCCUCGCUGGCGCCGGCUGGGCAACAUUCCGAGGGGACCGUCCCCUCUGUAAUGGCGAAUAGGACCCA | 0.355 |
| GGCCGGCAUGGUCCCAGCCUCCUCGCUGGCGCCGGCUGGGCAACAUUCCGAGGGGACCGUCCCCUCUGUAAUGGCGAAUGCGACCCA | 0.305 |
| GGCCGGCAUGGUCCCAGCCUCCUCGCUGGCGCCGGCUGGGCAACAUUCCGAGGGGACCGUCCCCUCUGUAAUGGCGAAUGGGACUCA | 0.972 |
| GGCCGGCAUGGUCCCAGCCUCCUCGCUGGCGCCGGCUGGGCAACAUUCCGAGGGGACCGUCCCCUCGAUAAUGGCGAAUGGGAACCA | 0.817 |
| GGCCGGCAUGGUCCCAGCCUCCUCGCUGGCGCCGGCUGGGCAACAUUCCGAGGGGACCGUCCCCUCCGUAAUGGCGAAUGCGACCCA | 0.286 |
| GGCCGGCAUGGUCCCAGCCUCCUCGCUGGCGCCGGCUGGGCAACAUUCCGAGGGGACCGUCCCCUCCGUAAUGGCGAAUGAGACCCA | 0.369 |
| GGCCGGCAUGGUCCCAGCCUCCUCGCUGGCGCCGGCUGGGCAACAUUCCGAGGGGACCGUCCCCUCCGUAAUGGCGAAUGUGACCCA | 0.157 |
| GGCCGGCAUGGUCCCAGCCUCCUCGCUGGCGCCGGCUGGGCAACAUUCCGAGGGGACCGUCCCCUCGAUAAUGGUGAAUGGGACCCA | 0.0615 |
| GGCCGGCAUGGUCCCAGCCUCCUCGCUGGCGCCGGCUGGGCAACAUUCCGAGGGGACCGUCCCCUCGAUAAUGGCGAGUGGGACCCA | 0.727 |
| GGCCGGCAUGGUCCCAGCCUCCUCGCUGGCGCCGGCUGGGCAACAUUCCGAGGGGACCGUCCCCUCGAUCAUGGCGAAUGGGACCCA | 0.707 |
| GGCCGGCAUGGUCCCAGCCUCCUCGCUGGCGCCGGCUGGGCAACAUUCCGAGGGGACCGUCCCCUCGAUUAUGGCGAAUGGGACCCA | 1.12 |
| GGCCGGCAUGGUCCCAGCCUCCUCGCUGGCGCCGGCUGGGCAACAUUCCGAGGGGACCGUCCCCUCGAUGAUGGCGAAUGGGACCCA | 1.07 |
| GGCCGGCAUGGUCCCAGCCUCCUCGCUGGCGCCGGCUGGGCAACAUUCCGAGGGGACCGUCCCCUCUGUAAUGGCGAAUGGUACCCA | 0.227 |
| GGCCGGCAUGGUCCCAGCCUCCUCGCUGGCGCCGGCUGGGCAACAUUCCGAGGGGACCGUCCCCUCUGUUAUGGCGAAUGGGACCCA | 0.812 |
| GGCCGGCAUGGUCCCAGCCUCCUCGCUGGCGCCGGCUGGGCAACAUUCCGAGGGGACCGUCCCCUCUGUGAUGGCGAAUGGGACCCA | 1.16 |
| GGCCGGCAUGGUCCCAGCCUCCUCGCUGGCGCCGGCUGGGCAACAUUCCGAGGGGACCGUCCCCUCGAUAAUGCCGAAUGGGACCCA | 0.314 |
| GGCCGGCAUGGUCCCAGCCUCCUCGCUGGCGCCGGCUGGGCAACAUUCCGAGGGGACCGUCCCCUCGAUAAUGUCGAAUGGGACCCA | 0.612 |
| GGCCGGCAUGGUCCCAGCCUCCUCGCUGGCGCCGGCUGGGCAACAUUCCGAGGGGACCGUCCCCUCGAUAAUGGCGAAUUGGACCCA | 0.251 |
| GGCCGGCAUGGUCCCAGCCUCCUCGCUGGCGCCGGCUGGGCAACAUUCCGAGGGGACCGUCCCCUCGAUAAUGGCGAAUCGGACCCA | 0.286 |

| Variant | self-cleavage |
| --- | --- |
| GGCCGGCAUGGUCCCAGCCUCCUCGCUGGCGCCGGCUGGGCAACAUUCCGAGGGGACCGUCCCCUCGAUAAUGGCGAAUAGGACCCA | 0.367 |
| GGCCGGCAUGGUCCCAGCCUCCUCGCUGGCGCCGGCUGGGCAACAUUCCGAGGGGACCGUCCCCUCGAUAAUGGCGAAUGGGACCCG | 0.995 |
| GGCCGGCAUGGUCCCAGCCUCCUCGCUGGCGCCGGCUGGGCAACAUUCCGAGGGGACCGUCCCCUCGAUAAUGGCGAAUGGGACCCU | 0.831 |
| GGCCGGCAUGGUCCCAGCCUCCUCGCUGGCGCCGGCUGGGCAACAUUCCGAGGGGACCGUCCCCUCGAUAAUGGCGCAUGGGACCCA | 0.155 |
| GGCCGGCAUGGUCCCAGCCUCCUCGCUGGCGCCGGCUGGGCAACAUUCCGAGGGGACCGUCCCCUCGAUAAUGGCGUAUGGGACCCA | 0.394 |
| GGCCGGCAUGGUCCCAGCCUCCUCGCUGGCGCCGGCUGGGCAACAUUCCGAGGGGACCGUCCCCUCGAUAAUGGCGGAUGGGACCCA | 0.743 |
| GGCCGGCAUGGUCCCAGCCUCCUCGCUGGCGCCGGCUGGGCAACAUUCCGAGGGGACCGUCCCCUCUGUAAUGGCGGAUGGGACCCA | 0.489 |
| GGCCGGCAUGGUCCCAGCCUCCUCGCUGGCGCCGGCUGGGCAACAUUCCGAGGGGACCGUCCCCUCUGUAAUGGCGUAUGGGACCCA | 0.681 |
| GGCCGGCAUGGUCCCAGCCUCCUCGCUGGCGCCGGCUGGGCAACAUUCCGAGGGGACCGUCCCCUCUGUAAGGGCGAAUGGGACCCA | 0.389 |
| GGCCGGCAUGGUCCCAGCCUCCUCGCUGGCGCCGGCUGGGCAACAUUCCGAGGGGACCGUCCCCUCUGUAAUGGCGAAUGGGACCUA | 0.933 |
| GGCCGGCAUGGUCCCAGCCUCCUCGCUGGCGCCGGCUGGGCAACAUUCCGAGGGGACCGUCCCCUCUGUAAUGGCGAAUGGGACCGA | 0.945 |
| GGCCGGCAUGGUCCCAGCCUCCUCGCUGGCGCCGGCUGGGCAACAUUCCGAGGGGACCGUCCCCUCUGUAAUGGCGAAUGGGAGCCA | 0.609 |
| GGCCGGCAUGGUCCCAGCCUCCUCGCUGGCGCCGGCUGGGCAACAUUCCGAGGGGACCGUCCCCUCUGUAAUGGCGAAUGGGAACCA | 0.746 |
| GGCCGGCAUGGUCCCAGCCUCCUCGCUGGCGCCGGCUGGGCAACAUUCCGAGGGGACCGUCCCCUCGAUAGUGGCGAAUGGGACCCA | 0.904 |
| GGCCGGCAUGGUCCCAGCCUCCUCGCUGGCGCCGGCUGGGCAACAUUCCGAGGGGACCGUCCCCUCGAUAUUGGCGAAUGGGACCCA | 0.867 |
| GGCCGGCAUGGUCCCAGCCUCCUCGCUGGCGCCGGCUGGGCAACAUUCCGAGGGGACCGUCCCCUCGAUAAUGGCAAAUGGGACCCA | 1 |
| GGCCGGCAUGGUCCCAGCCUCCUCGCUGGCGCCGGCUGGGCAACAUUCCGAGGGGACCGUCCCCUCGAUAAUGGCGAAUGGGACCAA | 0.822 |
| GGCCGGCAUGGUCCCAGCCUCCUCGCUGGCGCCGGCUGGGCAACAUUCCGAGGGGACCGUCCCCUCGAUAAUGGCGAAUGGGACCUA | 0.965 |
| GGCCGGCAUGGUCCCAGCCUCCUCGCUGGCGCCGGCUGGGCAACAUUCCGAGGGGACCGUCCCCUCUGUAAUUGCGAAUGGGACCCA | 0.263 |
| GGCCGGCAUGGUCCCAGCCUCCUCGCUGGCGCCGGCUGGGCAACAUUCCGAGGGGACCGUCCCCUCUGUAAUAGCGAAUGGGACCCA | 0.451 |
| GGCCGGCAUGGUCCCAGCCUCCUCGCUGGCGCCGGCUGGGCAACAUUCCGAGGGGACCGUCCCCUCCGUAAUGGCGAAAGGGACCCA | 0.935 |
| GGCCGGCAUGGUCCCAGCCUCCUCGCUGGCGCCGGCUGGGCAACAUUCCGAGGGGACCGUCCCCUCCGUAAUGGCGAACGGGACCCA | 0.305 |

| Variant | self-cleavage |
| --- | --- |
| GGCCGGCAUGGUCCCAGCCUCCUCGCUGGCGCCGGCUGGGCAACAUUCCGAGGGGACCGUCCCCUCCGUAAUGGCGAAGGGGACCCA | 0.435 |
| GGCCGGCAUGGUCCCAGCCUCCUCGCUGGCGCCGGCUGGGCAACAUUCCGAGGGGACCGUCCCCUCUGUAAUGGGGAAUGGGACCCA | 0.185 |
| GGCCGGCAUGGUCCCAGCCUCCUCGCUGGCGCCGGCUGGGCAACAUUCCGAGGGGACCGUCCCCUCUGGAAUGGCGAAUGGGACCCA | 1.03 |
| GGCCGGCAUGGUCCCAGCCUCCUCGCUGGCGCCGGCUGGGCAACAUUCCGAGGGGACCGUCCCCUCUGCAAUGGCGAAUGGGACCCA | 0.906 |
| GGCCGGCAUGGUCCCAGCCUCCUCGCUGGCGCCGGCUGGGCAACAUUCCGAGGGGACCGUCCCCUCUAUAAUGGCGAAUGGGACCCA | 0.972 |
| GGCCGGCAUGGUCCCAGCCUCCUCGCUGGCGCCGGCUGGGCAACAUUCCGAGGGGACCGUCCCCUCUUUAAUGGCGAAUGGGACCCA | 0.76 |
| GGCCGGCAUGGUCCCAGCCUCCUCGCUGGCGCCGGCUGGGCAACAUUCCGAGGGGACCGUCCCCUCUCUAAUGGCGAAUGGGACCCA | 0.962 |
| GGCCGGCAUGGUCCCAGCCUCCUCGCUGGCGCCGGCUGGGCAACAUUCCGAGGGGACCGUCCCCUCGAUAAUGGCGAAUGGGACACA | 0.831 |
| GGCCGGCAUGGUCCCAGCCUCCUCGCUGGCGCCGGCUGGGCAACAUUCCGAGGGGACCGUCCCCUCUGUAAUGGCGAAUGGGUCCCA | 0.469 |
| GGCCGGCAUGGUCCCAGCCUCCUCGCUGGCGCCGGCUGGGCAACAUUCCGAGGGGACCGUCCCCUCUGUAAUGGCGAAUGGGCCCCA | 0.635 |
| GGCCGGCAUGGUCCCAGCCUCCUCGCUGGCGCCGGCUGGGCAACAUUCCGAGGGGACCGUCCCCUCUGUAAUGGCGAAAGGGACCCA | 0.601 |
| GGCCGGCAUGGUCCCAGCCUCCUCGCUGGCGCCGGCUGGGCAACAUUCCGAGGGGACCGUCCCCUCUGUAAUGGCGAACGGGACCCA | 0.231 |
| GGCCGGCAUGGUCCCAGCCUCCUCGCUGGCGCCGGCUGGGCAACAUUCCGAGGGGACCGUCCCCUCUGUAAUGGCGAAGGGGACCCA | 0.516 |
| GGCCGGCAUGGUCCCAGCCUCCUCGCUGGCGCCGGCUGGGCAACAUUCCGAGGGGACCGUCCCCUCCGUAAUGGCGAAUGGAACCCA | 0.108 |
| GGCCGGCAUGGUCCCAGCCUCCUCGCUGGCGCCGGCUGGGCAACAUUCCGAGGGGACCGUCCCCUCCGUAAUGGCGAAUGGCACCCA | 0.289 |
| GGCCGGCAUGGUCCCAGCCUCCUCGCUGGCGCCGGCUGGGCAACAUUCCGAGGGGACCGUCCCCUCCGUAAUGGCGAAUGGUACCCA | 0.185 |
| GGCCGGCAUGGUCCCAGCCUCCUCGCUGGCGCCGGCUGGGCAACAUUCCGAGGGGACCGUCCCCUCGAUAAUGGCGAAUGGGUCCCA | 0.424 |
| GGCCGGCAUGGUCCCAGCCUCCUCGCUGGCGCCGGCUGGGCAACAUUCCGAGGGGACCGUCCCCUCUGUAAUGGCCAAUGGGACCCA | 1.1 |
| GGCCGGCAUGGUCCCAGCCUCCUCGCUGGCGCCGGCUGGGCAACAUUCCGAGGGGACCGUCCCCUCUGUAAUGGCUAAUGGGACCCA | 1.08 |
| GGCCGGCAUGGUCCCAGCCUCCUCGCUGGCGCCGGCUGGGCAACAUUCCGAGGGGACCGUCCCCUCUGUAAUGGCAAAUGGGACCCA | 1.18 |
